Measurements as given in PMC8187723.

target: recombinant human MXRA8-Fc fusion protein (UniProt Q9BRK3); conditions: 37 °C; n = 2; parent: est. 19; read off a plot

| Substance | Kd [µM] |
| --- | --- |
| Ross River virus T48, CPER-recovered wild type, purified virus (E1/E2 envelope glycoproteins on the virion) E1:N141Q | 0.061 |
| Ross River virus T48, CPER-recovered wild type, purified virus (E1/E2 envelope glycoproteins on the virion) E2:A71D | 0.11 |
| Ross River virus T48, CPER-recovered wild type, purified virus (E1/E2 envelope glycoproteins on the virion) E1:P226A | 0.02 |
| Ross River virus T48, CPER-recovered wild type, purified virus (E1/E2 envelope glycoproteins on the virion) E2:H64A | 0.061 |
| Ross River virus T48, CPER-recovered wild type, purified virus (E1/E2 envelope glycoproteins on the virion) E1:S98A | 0.03 |
